Test results published in paper PMC2172930.

Target: p85, the regulatory subunit of PI3-kinase (mouse (endogenous in NIH3T3)) (UniProt P26450)
Assay: co-IP

UniProt P26450, sequence (P26450 whole entry): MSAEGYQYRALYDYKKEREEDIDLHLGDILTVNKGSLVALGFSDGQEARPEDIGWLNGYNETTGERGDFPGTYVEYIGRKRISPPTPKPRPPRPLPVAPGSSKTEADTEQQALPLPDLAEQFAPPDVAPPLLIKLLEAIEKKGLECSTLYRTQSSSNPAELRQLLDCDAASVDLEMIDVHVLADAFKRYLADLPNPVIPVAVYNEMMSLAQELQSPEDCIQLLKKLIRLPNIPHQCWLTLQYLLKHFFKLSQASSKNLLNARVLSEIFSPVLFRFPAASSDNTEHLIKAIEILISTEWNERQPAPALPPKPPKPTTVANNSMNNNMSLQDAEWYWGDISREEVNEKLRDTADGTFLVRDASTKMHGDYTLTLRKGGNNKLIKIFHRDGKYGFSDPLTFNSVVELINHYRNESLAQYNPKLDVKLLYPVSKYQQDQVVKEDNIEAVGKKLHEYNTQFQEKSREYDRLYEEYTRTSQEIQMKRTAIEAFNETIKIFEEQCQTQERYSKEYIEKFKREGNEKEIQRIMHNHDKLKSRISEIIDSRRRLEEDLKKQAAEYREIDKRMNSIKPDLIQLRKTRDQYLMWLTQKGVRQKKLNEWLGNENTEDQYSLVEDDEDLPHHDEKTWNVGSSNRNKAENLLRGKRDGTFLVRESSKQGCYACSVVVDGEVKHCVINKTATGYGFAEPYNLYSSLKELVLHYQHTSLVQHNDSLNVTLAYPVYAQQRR

increase of AR/p85 association on 0.001 nM R1881 against unstimulated cells: 38%
Substance: androgen receptor (110-kD classical murine AR of NIH3T3 cells) (from UniProt P19091 1-899)
